Biological target: SBP-Asi2 (S. cerevisiae) (UniProt P53895)
Sequence of UniProt P53895 (P53895 whole entry): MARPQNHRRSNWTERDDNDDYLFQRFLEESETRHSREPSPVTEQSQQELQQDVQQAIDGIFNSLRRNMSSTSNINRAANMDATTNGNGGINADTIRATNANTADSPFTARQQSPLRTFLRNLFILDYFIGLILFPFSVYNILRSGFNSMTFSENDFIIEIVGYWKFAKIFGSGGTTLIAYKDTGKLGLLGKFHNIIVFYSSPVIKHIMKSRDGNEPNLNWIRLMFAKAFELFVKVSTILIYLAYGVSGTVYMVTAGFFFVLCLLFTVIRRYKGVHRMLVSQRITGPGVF

Sequence of TM68-MBP (P10614 1-68): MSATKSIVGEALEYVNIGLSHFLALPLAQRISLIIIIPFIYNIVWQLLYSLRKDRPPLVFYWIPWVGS

ubiquitination of TM68-MBP in proteoliposomes with only the Asi1/Asi3 subcomplex (no Asi2), against proteoliposomes with the entire Asi complex; Ubi Mix, 60 min: 28%
Substance: TM68-MBP (from UniProt P10614 1-68) (domain or fragment)
